According to US20120172285A1 (Dana-Farber, published 2012):
Bridges are numbered along the chain shown (N, C = ends). Where no end group is shown, it is not given here. [ ]: non-standard residue; d: D form. The star is where a group is joined. FITC = O=C1OC2(c3ccc(O)cc3Oc3cc(O)ccc32)c2ccc(NC(=S)*)cc21; S5 = C=CCCC[C@](C)(N)C(=O)O; Nle = CCCC[C@H](N)C(=O)O

B1: BIM SAHBD with Ile65 to Phe and Glu68 to Lys (MCL-1-specificity tailored BIM SAHB) (peptide)
peptide: {FITC}-IWI[S5]QEL[S5]RFGDKFNAYYAR
modifications: staple 4-8
B2: MCL-1 SAHBA (stapled MCL-1 BH3 helix, parental) (peptide)
peptide: KALETLR[S5]VGD[S5]VQRNHETAF
modifications: staple 8-12; also: N-terminal FITC or acetyl depending on assay
notes: domain: BH3; also called FITC-MCL-1 SAHBA
B3: MCL-1 SAHBA V220F (peptide, UniProt Q07820 208-228, looked up)
peptide: {FITC}-KALETLR[S5]VGD[S5]FQRNHETAF
modifications: staple 8-12
notes: domain: BH3; also called V220F point mutation in MCL-1 SAHB
B4: BOK SAHB (peptide)
peptide: {FITC}-RLAEVSAVLL[S5]LGD[S5]LE[Nle]IR
modifications: staple 11-15
B5: BID SAHB (peptide)
peptide: {FITC}-DIIRNIARHLA[S5]VGD[S5][Nle]DRSIRR
modifications: staple 12-16
notes: domain: BH3
B6: PUMA SAHB (peptide)
peptide: {FITC}-QWAREIGAQLR[S5][Nle]AD[S5]LNAQY
modifications: staple 12-16
notes: domain: BH3
B7: BAK SAHB (peptide)
peptide: {FITC}-QVGRQLA[S5]IGD[S5]INRRYD
modifications: staple 8-12
notes: also called FITC-BAK SAHB; BAK BH3 helix
B8: BAX SAHB (peptide)
peptide: {FITC}-ASTKKLSESLK[S5]IGD[S5]LDSN
modifications: staple 12-16
notes: domain: BH3

What was measured:
[1] = target: recombinant human MCL-1ΔNΔC (amino acids 172-320) (human) (UniProt Q07820); test: FPA, FITC-SAHB against MCL-1ΔNΔC
[2] = target: recombinant human MCL-1ΔNΔC (amino acids 172-320) (human) (UniProt Q07820); test: fluorescence polarization (FPA), FITC-SAHB, dilution series of MCL-1ΔNΔC [top panel]
recombinant BCL-XLΔC [3] = target: recombinant BCL-XLΔC (UniProt Q07817); test: fluorescence polarization (FPA), FITC-SAHB with recombinant anti-apoptotic protein [lower table]
recombinant BCL-wΔC [4] = target: recombinant BCL-wΔC (UniProt Q92843); test: as above
recombinant BFL-1/A1ΔC [5] = target: recombinant BFL-1/A1ΔC (UniProt Q16548); test: as above
[6] = target: recombinant human MCL-1ΔNΔC (amino acids 172-320) (human) (UniProt Q07820); test: as above
[7] = target: recombinant human MCL-1ΔNΔC (amino acids 172-320) (human) (UniProt Q07820); test: fluorescence polarization (FPA), FITC-NOXA SAHBB, dilution series of the protein [left graph]
recombinant BCL-XLΔC [8] = target: recombinant BCL-XLΔC (UniProt Q07817); test: fluorescence polarization (FPA), FITC-SAHB with recombinant anti-apoptotic protein [upper table]
recombinant BCL-wΔC [9] = target: recombinant BCL-wΔC (UniProt Q92843); test: as above
recombinant BFL-1/A1ΔC [10] = target: recombinant BFL-1/A1ΔC (UniProt Q16548); test: as above
[11] = target: recombinant human MCL-1ΔNΔC (amino acids 172-320) (human) (UniProt Q07820); test: as above
recombinant BFL-1/A1ΔC [12] = target: recombinant BFL-1/A1ΔC (UniProt Q16548); test: fluorescence polarization (FPA), FITC-SAHB with recombinant protein; axis Concentration [log(pM)] [left panel]
[13] = target: T1, recombinant human MCL-1ΔNΔC (amino acids 172-320) (human, UniProt Q07820 172-320); test: fluorescence polarization (FPA), FITC-SAHB with recombinant protein; axis Concentration [log(pM)] [right panel]
T1 construct: also called rMCL-1; MCL-1NC

[14] = target: T1, recombinant human MCL-1ΔNΔC (amino …); test: FPA, FITC-SAHB against MCL-1ΔNΔC
Experimental: (§1) For direct binding experiments, dissociation constants (KD) were calculated by nonlinear regression analysis of dose-response curves using Prism software (Graphpad). For competition experiments, Ki values were determined by nonlinear regression analysis of dose-response curves using a one-site competition model.
The native alpha-helical structure of BH3 domains was reinforced by incorporating non-natural amino acids containing olefin tethers at the (i, i+4) positions of the non-interacting face, followed by ruthenium catalyzed olefin metathesis to yield a panel of stapled BH3 domains (FIG. 7).

[15] = target: T1, recombinant human MCL-1ΔNΔC (amino …); test: competition FPA: dilution series of acetylated MCL-1 SAHB against FITC-BAK SAHB on MCL-1ΔNΔC
Experimental: (§2) Briefly, FITC-SAHB (50 nM) was added to serial dilutions of FPLC-purified recombinant protein in binding buffer (50 mM Tris, 100 mM NaCl, pH 8.0). […] Multiwell plates were incubated in the dark at room temperature until equilibrium was reached and fluorescence polarization (mP units) was measured by microplate reader (SpectraMax, Molecular Devices). For direct binding experiments, dissociation constants (KD) were calculated by nonlinear regression analysis of dose-response curves using Prism software (Graphpad). For competition experiments, Ki values were determined by nonlinear regression analysis of dose-response curves using a one-site competition model.
(§3) FP (mP units) was measured at equilibrium by microplate reader (e.g., Spectramax) and Kᵢ values calculated by nonlinear regression analysis of dose-response curves using Prism software (Graphpad).

[16] = target: T1, recombinant human MCL-1ΔNΔC (amino …); test: FPA
Experimental: as §1
The alanine scan was supplemented with glutamate mutagenesis of alanine and glycine residues.

[17] = target: T1, recombinant human MCL-1ΔNΔC (amino …); test: fluorescence polarization (FPA), FITC-SAHB, dilution series of MCL-1ΔNΔC [middle panel]
Experimental: as §1
(§4) To measure the binding activity of SAHBs for MCL-1, fluorescence polarization binding assays were performed (FIG. 8). To generate a stable MCL-1 protein suitable for such binding studies (i.e., the published full-length and carboxy-terminus deleted forms of recombinant MCL-1 degrade rapidly, rendering it difficult to maintain a homogenous solution of pure MCL-1 protein), a recombinant form of MCL-1 (rMCL-1) was produced that lacked its amino- and carboxy-terminus, “MCL-1ΔNΔC”, but retained the critical BCL-2 homology domains and adjoining protein sequences that give rise to the BH3-binding cleft (SEQ ID NO: 72). The pGEX-4T vector was used to produce the GST-fusion protein of MCL-1ΔNΔC and purification was achieved by glutathione sepharose chromatography, affinity tag cleavage with thrombin at room temperature overnight, followed by size exclusion chromatography. Serial dilutions of MCL-1ΔNΔC in 50 mM Tris pH 8, 150 mM NaCl were incubated with a fixed concentration of FITC-derivatized SAHB (10-50 nM) until equilibrium was reached. Fluorescence polarization was measured on a BMG POLARstar Optima or Spectramax and dissociation constants determined by nonlinear regression analysis using Prism software 4.0 (Graphpad) (FIG. 8).

[18] = target: T1, recombinant human MCL-1ΔNΔC (amino …); test: fluorescence polarization (FPA), FITC-SAHB with recombinant anti-apoptotic protein [upper table]
Experimental: as §1
(§5) To measure the binding activity of SAHBs for MCL-1, fluorescence polarization binding assays were performed (FIG. 8). To generate a stable MCL-1 protein suitable for such binding studies (i.e., the published full-length and carboxy-terminus deleted forms of recombinant MCL-1 degrade rapidly, rendering it difficult to maintain a homogenous solution of pure MCL-1 protein), a recombinant form of MCL-1 (rMCL-1) was produced that lacked its amino- and carboxy-terminus, “MCL-1ΔNΔC”, but retained the critical BCL-2 homology domains and adjoining protein sequences that give rise to the BH3-binding cleft (SEQ ID NO: 72). The pGEX-4T vector was used to produce the GST-fusion protein of MCL-1ΔNΔC and purification was achieved by glutathione sepharose chromatography, affinity tag cleavage with thrombin at room temperature overnight, followed by size exclusion chromatography. […] Fluorescence polarization was measured on a BMG POLARstar Optima or Spectramax and dissociation constants determined by nonlinear regression analysis using Prism software 4.0 (Graphpad) (FIG. 8).

[19] = target: T1, recombinant human MCL-1ΔNΔC (amino …); test: fluorescence polarization (FPA), FITC-SAHB, dilution series of MCL-1ΔNΔC [top panel]
Experimental: as §1, §5

[20] = target: T1, recombinant human MCL-1ΔNΔC (amino …); test: fluorescence polarization (FPA), FITC-SAHB with recombinant anti-apoptotic protein [lower table]
Experimental: as §1, §4

[21] = target: T1, recombinant human MCL-1ΔNΔC (amino …); test: competition FPA, FITC-BAK SAHB and MCL-1ΔNΔC with MCL-1 SAHBs as competitors
Experimental: as §2, §3

T1 sequence (Q07820 172-320 limits assumed, stated change not applied): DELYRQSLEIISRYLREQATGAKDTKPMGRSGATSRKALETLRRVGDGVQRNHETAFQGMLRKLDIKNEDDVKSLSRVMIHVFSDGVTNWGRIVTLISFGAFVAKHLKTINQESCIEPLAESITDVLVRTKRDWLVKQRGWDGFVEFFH
Sequence of recombinant human MCL-1ΔNΔC (amino acids 172-320) (human) (Q07820 172-320 limits assumed, stated change not applied): as above
Sequence of recombinant BFL-1/A1ΔC (Q16548 1-153, stated change not applied): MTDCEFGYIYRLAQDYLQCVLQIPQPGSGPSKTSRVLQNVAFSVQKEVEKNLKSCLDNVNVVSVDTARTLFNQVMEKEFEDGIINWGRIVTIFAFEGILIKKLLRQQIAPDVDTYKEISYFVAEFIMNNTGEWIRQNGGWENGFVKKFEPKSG
Sequence of recombinant BCL-XLΔC (Q07817 1-212, stated change not applied): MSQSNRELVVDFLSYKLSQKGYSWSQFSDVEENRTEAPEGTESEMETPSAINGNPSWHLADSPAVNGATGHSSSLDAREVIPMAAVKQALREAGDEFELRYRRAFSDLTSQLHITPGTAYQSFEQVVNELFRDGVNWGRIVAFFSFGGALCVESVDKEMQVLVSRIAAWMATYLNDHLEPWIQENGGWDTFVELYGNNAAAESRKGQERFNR
Sequence of recombinant BCL-wΔC (Q92843 1-164, stated change not applied): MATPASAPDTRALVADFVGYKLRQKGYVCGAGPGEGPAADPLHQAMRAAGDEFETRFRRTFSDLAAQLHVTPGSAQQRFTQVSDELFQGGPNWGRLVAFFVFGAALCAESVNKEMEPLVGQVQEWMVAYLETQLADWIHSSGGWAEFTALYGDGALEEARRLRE

| Molecule | Kd (recombinant BCL-XLΔC [3]) | Kd (recombinant BCL-wΔC [4]) | Kd (recombinant BFL-1/A1ΔC [5]) | Kd [14] | Kd [20] | also measured |
| --- | --- | --- | --- | --- | --- | --- |
| NOXA SAHBA (stapled NOXA BH3 helix) (from UniProt Q13794) (peptide) | > 1000 nM | > 1000 nM | 416 nM |  |  | Kd [1]: < 50 nM; Kd [2]: 22 nM; Kd [6]: 22 nM |
| NOXA SAHBB (from UniProt Q13794 19-43) (peptide) |  |  |  |  |  | Kd [7]: 110 nM; Kd (recombinant BCL-XLΔC [8]): > 1000 nM; Kd (recombinant BCL-wΔC [9]): > 1000 nM; Kd (recombinant BFL-1/A1ΔC [10]): > 1000 nM; Kd [11]: 109 nM |
| BIM SAHB (BIM SAHBA) (peptide) |  | 2 nM | 18 nM |  |  | EC50 (read off the curve) (recombinant BFL-1/A1ΔC [12]): 50 nM |
| B1 |  |  |  |  |  | EC50 (read off the curve) [13]: ~10 nM |
| B2 |  |  |  | < 50 nM |  | Ki [15]: 3100 nM |
| B3 |  |  |  |  |  | Kd [16]: 191 nM |
| B4 |  |  |  | < 50 nM |  | Kd (recombinant BCL-XLΔC [8]): 316 nM; Kd (recombinant BCL-wΔC [9]): 416 nM; Kd (recombinant BFL-1/A1ΔC [10]): > 1000 nM; Kd [17]: 115 nM; Kd [18]: 115 nM |
| B5 | 28 nM | 54 nM | 95 nM | < 50 nM | 50 nM | Kd [19]: 50 nM |
| B6 | 9 nM | 18 nM | 34 nM | < 50 nM | 14 nM | Kd [19]: 14 nM |
| B7 | 15 nM | 17 nM | 92 nM | < 50 nM | 7 nM | IC50 [21]: 270 nM; Kd [17]: 7 nM |
| B8 | 15 nM | 24 nM | 28 nM | < 50 nM | 101 nM | Kd [17]: 101 nM |
